The values below come from patent publication US8703915B2, “Mutant proteins and methods for producing them” (Heptares Therapeutics Limited, priority 2009, dated 2014).

In data set [1] the test system is 5HT2C receptor. Nature of the data set: Thermostability of 5HT2C receptor bound to agonist SCH23390. The data set is classed as physicochemical, human. The conditions noted are these: bound to agonist SCH23390. The procedure:
An alanine scan has been carried out on the 5HT2C receptor in the presence of the agonist SCH23390 in order to stabilise the agonist conformation. Similar to A2A, it appears that mutating L2.46 (L95 in 5HT2C) to alanine confers significant stability on this receptor increasing the Tm of the receptor by 5.4° C. (FIG. 7). It is notable that in addition to L95, mutating the nearby M93 (two residues away from L2.46) to alanine also confers stability to the agonist bound receptor, resulting in an increase of 2.9° C.
(§1) A2AR-(2-316) expression was carried out by using the pRG/III-hs-MBP E. coli expression vector and DH5α cells. Cells were grown at 37° C. in 2 L flasks containing 500 mL of 2×TY medium supplemented with Ampicillin (100 μg/mL) and glucose (0.2% w/v). At OD600≈0.7, IPTG and theophylline were added at final concentrations respectively of 0.5 mM and 100 μM, and the temperature was reduced to 20° C. After 22 to 24 hours, cells were harvested in aliquots of 14 mL, centrifuged for 30 min and stored at −20° C. Both 5HT2C and M4 receptors were transiently expressed in HEK293T cells using GeneJuice transfection reagent used according to the manufacturers guidelines.
(§2) 5HT2C receptor was solubilised from transiently transfected mammalian cells in 50 mM Hepes pH7.4, 100 mM KCl, 0.5% DDM (0.1% CHS/0.6% CHAPS was added to cells for SCH23390 agonist assay). Tm analysis was performed directly on the soluble lysate. The Tm was determined by incubating 108 μl of the lysate with [N^6-methyl-^3H]Mesulergine radioligand at a final concentration of 17 nM or 9 nM [^3H]SCH23390 for one hour at 4° C. The six ligand incubations are then incubated at six different temperatures from 25° C. to 55° C., for thirty minutes. Receptor bound and free radioligand were separated using a 96-well plate gel filtration assay.
(§3) 5HT2C receptor was solubilised from transiently transfected mammalian cells about 40 hours post transfection, in 50 mM Hepes pH7.4/100 mM KCl/0.5% DDM/(0.1% CHS/0.6% CHAPS was added to cells for SCH23390 agonist assay) and protease inhibitor. Cell lysates were left at 4° C. on a rotator and then cleared by centrifugation at 13,200 rpm for 20 minutes at 4° C. Thermostability analysis was performed directly on the soluble lysate. The Tm was determined by incubating 108 μl of the lysate with [N^6-methyl-^3H]Mesulergine radioligand at a final concentration of 17 nM or 9 nM [^3H]SCH23390 for one hour at 4° C. The six ligand incubations are then incubated at six different temperatures from 25° C. to 55° C., for thirty minutes. Receptor bound and free radioligand were separated using G25 Sephadex spin columns.

The subject of data set [2] is 5HT2C receptor. In words: Antagonist binding to 5HT2C NPxxY motif alanine mutants (Table 1). Also on record: species or system human; Average / Average - BG: unit not given here. On the procedure: An alanine scan was carried out in a similar fashion on an adenosine A2A receptor along with the 5HT2C receptor in the presence of the antagonist Mesulergine. Both alanine scans were carried out in order to further stabilize the antagonist conformation. […] The motif in Adenosine A2A is NPFIY (SEQ ID NO: 364) and for the 5HT2C is NPLVY (SEQ ID NO: 363). Therefore mutations in this region of the receptor contain stabilising mutations specific to the agonist conformation and detrimentally effect antagonist binding.
as §3

The subject of data set [3] is 5HT2C receptor. Nature of the data set: Thermostability of 5HT2C receptor bound to antagonist mesulergine. The data set is classed as physicochemical, human. As to conditions: bound to antagonist (mesulergine). The procedure:
as §1, §2

In data set [4] the test system is OX2 receptor. In words: Thermostability of OX2 receptor bound to antagonist EMPA. Type of data set: physicochemical, human. As to conditions: bound to antagonist EMPA. The procedure: Transiently transfected mammalian cells expressing M4 were harvested about 40 hours post transfection and the receptors were solubilised in 50 mM Tris pH 7.5/250 mM NaCl/1% DDM/EDTA free protease inhibitor mix for 1 hour rotating at 4° C. The solubilised lysate was then cleared by centrifugation at 13000 rpm for 15 minutes at 4° C. The solubilised receptors were then purified on Ni-NTA beads and eluted with 100 mM histidine. The eluted receptor was used in radioligand binding assay. Thermostability of M4 was measured using 25 μL of purified receptor mixed with 95 μL of 12 nM [^3H]-NMS (final concentration of 10 nM). The sample was incubated for 60 min at 4° C., then 30 min at the specified temperature and then 30 min at 4° C. Receptor bound and free radioligand were separated using a 96-well plate gel filtration assay.
A tandem alanine and leucine scanning mutagenesis strategy was used to identify mutations that enhanced the thermostability of OX2 bound to the small-molecule antagonist EMPA.
Thermostability assays were preformed on partially purified receptors as described for M4, with the following amendments. Cell lysates were solubilised in 50 mM Tris pH7.4, 150 mM NaCl, 1% DDM supplemented with 1× complete EDTA free protease inhibitor cocktail (Roche). Radioligand binding reactions were set up using 1/10 volume eluted receptor mixed with 20 nM ^3H-EMPA (final concentration) per temperature point.

The test system of data set [5] is CRF1. Nature of the data set: Thermostability of CRF1 bound to antagonist CP-376395, purified in DDM. Type of data set: physicochemical, human. As to conditions: antagonist-bound state (CP-376395), purified in DDM. On the procedure:
In order to stabilise CRF1 in the antagonist conformation, a systematic alanine-scan was performed to identify mutations that stabilise receptors bound to the antagonist ligand CP-376395. Mutating I2.58 to alanine (I163A) confers significant stabilisation in CRF1, increasing the thermal stability by 3.9 (±0.5)° C. (FIG. 15).
CRF1 receptors were transiently expressed in HEK293T cells on 10 cm plates using GeneJuice transfection reagent used according to manufacturers guidelines.
Cells expressing CRF1 were harvested in PBS approximately 40 hours post-transfection and re-suspended in 950 μl Re-suspension buffer (50 mM Tris-HCl, 150 mM NaCl, 2× Complete EDTA-free Protease inhibitor cocktail (Roche), pH7.5). Cells were incubated with 120 nM CP-376395 and 30 nM [^3H]-CP-376395 at 37° C. for 2 hours before transferring to ice for 5 minutes. The receptors were solubilised by the addition of 1% DDM and incubated at 4° C. for 1 hour with gentle agitation. Insoluble material was removed by centrifugation at 16000×g for 10 minutes at 4° C. The solubilised receptors were partially purified with Ni-NTA agarose (Qiagen). Ni-NTA resin was equilibrated in Equilibration buffer (50 mM Tris-HCl, 150 mM NaCl, 2× Complete EDTA-free Protease inhibitor cocktail (Roche), 0.025% DDM, pH7.5) and 400 μl of a 50:50 resin slurry was added to each sample. Resin slurries were incubated at 4° C. for 1 hour 30 minutes with gentle agitation to bind receptors. Resin slurries were then transferred to a batch column filter plate (Chromabond) and centrifuged at 1000×g for 1 minute, discarding the flow-through. Resin was washed twice with 1 ml of Wash buffer (50 mM Tris-HCl, 150 mM NaCl, 2× Complete EDTA-free Protease inhibitor cocktail (Roche), 0.025% DDM, 20 mM Imidazole, pH7.5) and then eluted in 1 ml of Elution buffer (50 mM Tris-HCl, 150 mM NaCl, 2× Complete EDTA-free Protease inhibitor cocktail (Roche), 0.025% DDM, 100 mM histidine, 30 nM [^3H]-CP-376395, 120 nM CP-376395, pH7.5) by resuspension at 4° C. for 30 minutes. Eluted samples were used directly in the thermostability assay. […]

B1: 5HT2C: wild type (parent) human 5HT2C receptor (protein, listed as Homo sapiens)
chain: MVNLRNAVHSFLVHLIGLLVWQCDISVSPVAAIVTDIFNTSDGGRFKFPDGVQNWPALSIVIIIIMTIGGNILVIMAVSMEKKLHNATNYFLMSLAIADMLVGLLVMPLSLLAILYDYVWPLPRYLCPVWISLDVLFSTASIMHLCAISLDRYVAIRNPIEHSRFNSRTKAIMKIAIVWAISIGVSVPIPVIGLRDEEKVFVNNTTCVLNDPNFVLIGSFVAFFIPLTIMVITYCLTIYVLRRQALMLLHGHTEEPPGLSLDFLKCCKRNTAEEENSANPNQDQNARRRKKKERRPRGTMQAINNERKASKVLGIVFFVFLIMWCPFFITNILSVLCEKSCNQKLMEKLLNVFVWIGYVCSGINPLVYTLFNKIYRRAFSNYLRCNYKVEKKPPVRQIPRVAATALSGRELNVNIYRHTNEPVIEKASDNEPGIEMQVENLELPVNPSSVVSERISSV
On to B1, for which the Tm in data set [1] worked out at 43.35 °C; in data set [3] it was 37.1 °C. For the same molecule, the “% of Wildtype binding” value in data set [2] (antagonist Mesulergine binding) amounted to 100%. For the same molecule, in data set [2] (antagonist Mesulergine binding, replicate 1), the DPM1 is reported as 10202 DPM. Also, the DPM2 in data set [2] (antagonist Mesulergine binding, replicate 2) is listed as 9631 DPM. The “Average - BG” value in data set [2] (average minus background) was found to be 9208. Further, in data set [2] (average of DPM1 and DPM2), the Average is reported as 9916.5.

B2: OX2WT: wild type human orexin 2 receptor (protein, UniProt O43614 1-444, looked up)
Orexin receptor type 2: MSGTKLEDSPPCRNWSSASELNETQEPFLNPTDYDDEEFLRYLWREYLHPKEYEWVLIAGYIIVFVVALIGNVLVCVAVWKNHHMRTVTNYFIVNLSLADVLVTITCLPATLVVDITETWFFGQSLCKVIPYLQTVSVSVSVLTLSCIALDRWYAICHPLMFKSTAKRARNSIVIIWIVSCIIMIPQAIVMECSTVFPGLANKTTLFTVCDERWGGEIYPKMYHICFFLVTYMAPLCLMVLAYLQIFRKLWCRQIPGTSSVVQRKWKPLQPVSQPRGPGQPTKSRMSAVAAEIKQIRARRKTARMLMIVLLVFAICYLPISILNVLKRVFGMFAHTEDRETVYAWFTFSHWLVYANSAANPIIYNFLSGKFREEFKAAFSCCCLGVHHRQEDRLTRGRTSTESRKSLTTQISNFDNISKLSEQVVLTSISTLPAANGAGPLQNW
As for B2, the Tm in data set [4] came out at 28.47 °C.

B3: CRF1-WT: wild type human CRF1 receptor (protein, UniProt P34998 24-415, looked up)
Corticotropin-releasing …: SLQDQHCESLSLASNISGLQCNASVDLIGTCWPRSPAGQLVVRPCPAFFYGVRYNTTNNGYRECLANGSWAARVNYSECQEILNEEKKSKVHYHVAVIINYLGHCISLVALLVAFVLFLRLRSIRCLRNIIHWNLISAFILRNATWFVVQLTMSPEVHQSNVGWCRLVTAAYNYFHVTNFFWMFGEGCYLHTAIVLTYSTDRLRKWMFICIGWGVPFPIIVAWAIGKLYYDNEKCWFGKRPGVYTDYIYQGPMILVLLINFIFLFNIVRILMTKLRASTTSETIQYRKAVKATLVLLPLLGITYMLFFVNPGEDEVSRVVFIYFNSFLESFQGFFVSVFYCFLNSEVRSAIRKRWHRWQDKHSIRARVARAMSIPTSPTRVSFHSIKQSTAV
In the case of B3, in data set [5], the Tm stood at 26.8 °C.
